Laboratory results reported in the supplement of paper PMC5998384.

How the values were obtained:
HeLa Kyoto [1] = assay: solubility in G1/S (NP-40 vs SDS abundance) (log2 ratio); higher = more soluble; conditions: cell cycle stage: G1/S
HeLa Kyoto [2] = assay: solubility change mitosis vs G1/S (difference of NP-40 vs SDS log2 ratios) (log2 ratio difference); higher = more soluble in mitosis
HeLa Kyoto [3] = assay: thermal stability score vs G1/S (z-score of summed log2 fold changes over temperatures); higher = more thermally stable than in G1/S
HeLa Kyoto [4] = assay: melting temperature (median over replicates), in situ; higher = more thermally stable
[5] = cell cycle stage: early G1 (4.5 h after nocodazole release)
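For melting temperature (median over replicates), in situ in this document: HeLa Kyoto cells synchronized by double thymidine or nocodazole block, proteins quantified by TMT10plex mass spectrometry, three independent biological replicates.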
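For solubility change mitosis vs G1/S (difference of NP-40 vs SDS log2 ratios) in this document: synchronized HeLa Kyoto cells (double thymidine block for G1/S, nocodazole release for mitosis), protein amounts in NP-40 versus SDS lysates quantified by mass spectrometry, three biological replicates.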
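For solubility in G1/S (NP-40 vs SDS abundance) in this document: HeLa Kyoto cells arrested at G1/S by double thymidine block, proteins quantified by TMT10plex mass spectrometry in mild NP-40 versus SDS extracts, three biological replicates.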
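For thermal stability score vs G1/S (z-score of summed log2 fold changes over temperatures) in this document: synchronized HeLa Kyoto cells, proteins quantified by TMT10plex mass spectrometry, three biological replicates, mitosis taken 0.5 h after nocodazole release, G1/S directly after double thymidine block.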

Sequence	solubility in G1/S (log2) (HeLa Kyoto [1])	solubility change mitosis (log2) (HeLa Kyoto [2])	thermal stability score (HeLa Kyoto [3]; [5])	thermal stability score (HeLa Kyoto [3]; cell cycle stage: mitosis)	melting temperature (HeLa Kyoto [4]; cell cycle stage: G1/S) [°C]	melting temperature (HeLa Kyoto [4]; cell cycle stage: mitosis) [°C]
MLDFAIFAVTFLLALVGAVLYLYPASRQAAGIPGITPTEEKDGNLPDIVNSGSLHEFLVNLHERYGPVVSFWFGRRLVVSLGTVDVLKQHINPNKTSDPFETMLKSLLRYQSGGGSVSENHMRKKLYENGVTDSLKSNFALLLKLSEELLDKWLSYPETQHVPLSQHMLGFAMKSVTQMVMGSTFEDDQEVIRFQKNHGTVWSEIGKGFLDGSLDKNMTRKKQYEDALMQLESVLRNIIKERKGRNFSQHIFIDSLVQGNLNDQQILEDSMIFSLASCIITAKLCTWAICFLTTSEEVQKKLYEEINQVFGNGPVTPEKIEQLRYCQHVLCETVRTAKLTPVSAQLQDIEGKIDRFIIPRETLVLYALGVVLQDPNTWPSPHKFDPDRFDDELVMKTFSSLGFSGTQECPELRFAYMVTTVLLSVLVKRLHLLSVEGQVIETKYELVTSSREEAWITVSKRY [CYP20A1]	-0.178	-0.0969	0.229	-1.11	54.4	55.1
MLDFLAENNLCGQAILRIVSCGNAIIAELLRLSEFIPAVFRLKDRADQQKYGDIIFDFSYFKGPELWESKLDAKPELQDLDEEFRENNIEIVTRFYLAFQSVHKYIVDLNRYLDDLNEGVYIQQTLETVLLNEDGKQLLCEALYLYGVMLLVIDQKIEGEVRERMLVSYYRYSAARSSADSNMDDICKLLRSTGYSSQPGAKRPSNYPESYFQRVPINESFISMVIGRLRSDDIYNQVSAYPLPEHRSTALANQAAMLYVILYFEPSILHTHQAKMREIVDKYFPDNWVISIYMGITVNLVDAWEPYKAAKTALNNTLDLSNVREQASRYATVSERVHAQVQQFLKEGYLREEMVLDNIPKLLNCLRDCNVAIRWLMLHTADSACDPNNKRLRQIKDQILTDSRYNPRILFQLLLDTAQFEFILKEMFKQMLSEKQTKWEHYKKEGSERMTELADVFSGVKPLTRVEKNENLQAWFREISKQILSLNYDDSTAAGRKTVQLIQALEEVQEFHQLESNLQVCQFLADTRKFLHQMIRTINIKEEVLITMQIVGDLSFAWQLIDSFTSIMQESIRVNPSMVTKLRATFLKLASALDLPLLRINQANSPDLLSVSQYYSGELVSYVRKVLQIIPESMFTSLLKIIKLQTHDIIEVPTRLDKDKLRDYAQLGPRYEVAKLTHAISIFTEGILMMKTTLVGIIKVDPKQLLEDGIRKELVKRVAFALHRGLIFNPRAKPSELMPKLKELGATMDGFHRSFEYIQDYVNIYGLKIWQEEVSRIINYNVEQECNNFLRTKIQDWQSMYQSTHIPIPKFTPVDESVTFIGRLCREILRITDPKMTCHIDQLNTWYDMKTHQEVTSSRLFSEIQTTLGTFGLNGLDRLLCFMIVKELQNFLSMFQKIILRDRTVQDTLKTLMNAVSPLKSIVANSNKIYFSAIAKTQKIWTAYLEAIMKVGQMQILRQQIANELNYSCRFDSKHLAAALENLNKALLADIEAHYQDPSLPYPKEDNTLLYEITAYLEAAGIHNPLNKIYITTKRLPYFPIVNFLFLIAQLPKLQYNKNLGMVCRKPTDPVDWPPLVLGLLTLLKQFHSRYTEQFLALIGQFICSTVEQCTSQKIPEIPADVVGALLFLEDYVRYTKLPRRVAEAHVPNFIFDEFRTVL [KIAA0196]	-0.217	-0.117	0.232	-0.00652	50.7	50
MLERPPALAMPMPTEGTPPPLSGTPIPVPAYFRHAEPGFSLKRPRGLSRSLPPPPPAKGSIPISRLFPPRTPGWHQLQPRRVSFRGEASETLQSPGYDPSRPESFFQQSFQRLSRLGHGSYGEVFKVRSKEDGRLYAVKRSMSPFRGPKDRARKLAEVGSHEKVGQHPCCVRLEQAWEEGGILYLQTELCGPSLQQHCEAWGASLPEAQVWGYLRDTLLALAHLHSQGLVHLDVKPANIFLGPRGRCKLGDFGLLVELGTAGAGEVQEGDPRYMAPELLQGSYGTAADVFSLGLTILEVACNMELPHGGEGWQQLRQGYLPPEFTAGLSSELRSVLVMMLEPDPKLRATAEALLALPVLRQPRAWGVLWCMAAEALSRGWALWQALLALLCWLWHGLAHPASWLQPLGPPATPPGSPPCSLLLDSSLSSNWDDDSLGPSLSPEAVLARTVGSTSTPRSRCTPRDALDLSDINSEPPRGSFPSFEPRNLLSLFEDTLDPT [PKMYT1]	0.406	-0.332	0.535	0.495	48.7	49
MLETLRERLLSVQQDFTSGLKTLSDKSREAKVKSKPRTVPFLPKYSAGLELLSRYEDTWAALHRRAKDCASAGELVDSEVVMLSAHWEKKKTSLVELQEQLQQLPALIADLESMTANLTHLEASFEEVENNLLHLEDLCGQCELERCKHMQSQQLENYKKNKRKELETFKAELDAEHAQKVLEMEHTQQMKLKERQKFFEEAFQQDMEQYLSTGYLQIAERREPIGSMSSMEVNVDMLEQMDLMDISDQEALDVFLNSGGEENTVLSPALGPESSTCQNEITLQVPNPSELRAKPPSSSSTCTDSATRDISEGGESPVVQSDEEEVQVDTALATSHTDREATPDGGEDSDS [DTNBP1]	0.267	-0.387	-0.457	-0.463	54.1	–
MLGAWAVEGTAVALLRLLLLLLPPAIRGPGLGVAGVAGAAGAGLPESVIWAVNAGGEAHVDVHGIHFRKDPLEGRVGRASDYGMKLPILRSNPEDQILYQTERYNEETFGYEVPIKEEGDYVLVLKFAEVYFAQSQQKVFDVRLNGHVVVKDLDIFDRVGHSTAHDEIIPMSIRKGKLSVQGEVSTFTGKLYIEFVKGYYDNPKVCALYIMAGTVDDVPKLQPHPGLEKKEEEEEEEEYDEGSNLKKQTNKNRVQSGPRTPNPYASDNSSLMFPILVAFGVFIPTLFCLCRL [MLEC]	-0.0175	-0.0845	1.83	2.38	53.7	53.6
MLGFITRPPHRFLSLLCPGLRIPQLSVLCAQPRPRAMAISSSSCELPLVAVCQVTSTPDKQQNFKTCAELVREAARLGACLAFLPEAFDFIARDPAETLHLSEPLGGKLLEEYTQLARECGLWLSLGGFHERGQDWEQTQKIYNCHVLLNSKGAVVATYRKTHLCDVEIPGQGPMCESNSTMPGPSLESPVSTPAGKIGLAVCYDMRFPELSLALAQAGAEILTYPSAFGSITGPAHWEVLLRARAIETQCYVVAAAQCGRHHEKRASYGHSMVVDPWGTVVARCSEGPGLCLARIDLNYLRQLRRHLPVFQHRRPDLYGNLGHPLS [NIT1]	0.248	-0.133	-1.82	-2.71	54.7	55.1
MLGIWTLLPLVLTSVARLSSKSVNAQVTDINSKGLELRKTVTTVETQNLEGLHHDGQFCHKPCPPGERKARDCTVNGDEPDCVPCQEGKEYTDKAHFSSKCRRCRLCDEGHGLEVEINCTRTQNTKCRCKPNFFCNSTVCEHCDPCTKCEHGIIKECTLTSNTKCKEEGSRSNLGWLCLLLLPIPLIVWVKRKEVQKTCRKHRKENQGSHESPTLNPETVAINLSDVDLSKYITTIAGVMTLSQVKGFVRKNGVNEAKIDEIKNDNVQDTAEQKVQLLRNWHQLHGKKEAYDTLIKDLKKANLCTLAEKIQTIILKDITSDSENSNFRNEIQSLV [FAS]	0.525	0.0304	-0.244	-1.13	54.1	54.4
MLGLLVALLALGLAVFALLDVWYLVRLPCAVLRARLLQPRVRDLLAEQRFPGRVLPSDLDLLLHMNNARYLREADFARVAHLTRCGVLGALRELRAHTVLAASCARHRRSLRLLEPFEVRTRLLGWDDRAFYLEARFVSLRDGFVCALLRFRQHLLGTSPERVVQHLCQRRVEPPELPADLQHWISYNEASSQLLRMESGLSDVTKDQ [THEM6]	-0.64	-0.052	-1.92	-2.82	55.3	53.8
MLKKFDKKDEESGGGSNPFQHLEKSAVLQEARVFNETPINPRKCAHILTKILYLINQGEHLGTTEATEAFFAMTKLFQSNDPTLRRMCYLTIKEMSCIAEDVIIVTSSLTKDMTGKEDNYRGPAVRALCQITDSTMLQAIERYMKQAIVDKVPSVSSSALVSSLHLLKCSFDVVKRWVNEAQEAASSDNIMVQYHALGLLYHVRKNDRLAVNKMISKVTRHGLKSPFAYCMMIRVASKQLEEEDGSRDSPLFDFIESCLRNKHEMVVYEAASAIVNLPGCSAKELAPAVSVLQLFCSSPKAALRYAAVRTLNKVAMKHPSAVTACNLDLENLVTDSNRSIATLAITTLLKTGSESSIDRLMKQISSFMSEISDEFKVVVVQAISALCQKYPRKHAVLMNFLFTMLREEGGFEYKRAIVDCIISIIEENSESKETGLSHLCEFIEDCEFTVLATRILHLLGQEGPKTTNPSKYIRFIYNRVVLEHEEVRAGAVSALAKFGAQNEEMLPSILVLLKRCVMDDDNEVRDRATFYLNVLEQKQKALNAGYILNGLTVSIPGLERALQQYTLEPSEKPFDLKSVPLATAPMAEQRTESTPITAVKQPEKVAATRQEIFQEQLAAVPEFRGLGPLFKSSPEPVALTESETEYVIRCTKHTFTNHMVFQFDCTNTLNDQTLENVTVQMEPTEAYEVLCYVPARSLPYNQPGTCYTLVALPKEDPTAVACTFSCMMKFTVKDCDPTTGETDDEGYEDEYVLEDLEVTVADHIQKVMKLNFEAAWDEVGDEFEKEETFTLSTIKTLEEAVGNIVKFLGMHPCERSDKVPDNKNTHTLLLAGVFRGGHDILVRSRLLLLDTVTMQVTARSLEELPVDIILASVG [COPG1]	-0.169	-0.224	0.468	-0.737	52	51.5
MLLAVLLLLPLPSSWFAHGHPLYTRLPPSALQVLSAQGTQALQAAQRSAQWAINRVAMEIQHRSHECRGSGRPRPQALLQDPPEPGPCGERRPSTANVTRAHGRIVGGSAAPPGAWPWLVRLQLGGQPLCGGVLVAASWVLTAAHCFVGAPNELLWTVTLAEGSRGEQAEEVPVNRILPHPKFDPRTFHNDLALVQLWTPVSPGGSARPVCLPQEPQEPPAGTACAIAGWGALFEDGPEAEAVREARVPLLSTDTCRRALGPGLRPSTMLCAGYLAGGVDSCQGDSGGPLTCSEPGPRPREVLFGVTSWGDGCGEPGKPGVYTRVAVFKDWLQEQMSASSSREPSCRELLAWDPPQELQADAARLCAFYARLCPGSQGACARLAHQQCLQRRRRCELRSLAHTLLGLLRNAQELLGPRPGLRRLAPALALPAPALRESPLHPARELRLHSGSRAAGTRFPKRRPEPRGEANGCPGLEPLRQKLAALQGAHAWILQVPSEHLAMNFHEVLADLGSKTLTGLFRAWVRAGLGGRHVAFSGLVGLEPATLARSLPRLLVQALQAFRVAALAEGEPEGPWMDVGQGPGLERKGHHPLNPQVPPARQP [PRSS56]	0.296	-0.116	1.67	3.49	53.2	53.3
MLLKTVLLLGHVAQVLMLDNGLLQTPPMGWLAWERFRCNINCDEDPKNCISEQLFMEMADRMAQDGWRDMGYTYLNIDDCWIGGRDASGRLMPDPKRFPHGIPFLADYVHSLGLKLGIYADMGNFTCMGYPGTTLDKVVQDAQTFAEWKVDMLKLDGCFSTPEERAQGYPKMAAALNATGRPIAFSCSWPAYEGGLPPRVNYSLLADICNLWRNYDDIQDSWWSVLSILNWFVEHQDILQPVAGPGHWNDPDMLLIGNFGLSLEQSRAQMALWTVLAAPLLMSTDLRTISAQNMDILQNPLMIKINQDPLGIQGRRIHKEKSLIEVYMRPLSNKASALVFFSCRTDMPYRYHSSLGQLNFTGSVIYEAQDVYSGDIISGLRDETNFTVIINPSGVVMWYLYPIKNLEMSQQ [NAGA]	0.254	-0.171	-1.47	-2.02	54.8	54.5
